Source: patent publication US20130302250A1 (published 2013)
Positions count from the first letter of the chain named.

Legend:
[1] = molecular target: T1, human serum albumin (human, UniProt P02768 25-609); assay: SPR (BIAcore), pH 6.0
T1 construct: also called HSA; HAS

[2] = molecular target: T2, mouse serum albumin (mouse, UniProt P07724 25-608); assay: SPR (BIAcore), pH 6.0
T2 construct: also called MSA; mouse albumin

[3] = molecular target: T3, rat serum albumin (rat, UniProt P02770 25-608); assay: SPR (BIAcore), pH 6.0
T3 construct: also called RSA; rat albumin

[4] = molecular target: T1, human serum albumin; assay: SPR (BIAcore), pH 7.4
[5] = molecular target: T2, mouse serum albumin; assay: SPR (BIAcore), pH 7.4
[6] = molecular target: T3, rat serum albumin; assay: SPR (BIAcore), pH 7.4

T3 sequence (P02770 25-608 limits assumed): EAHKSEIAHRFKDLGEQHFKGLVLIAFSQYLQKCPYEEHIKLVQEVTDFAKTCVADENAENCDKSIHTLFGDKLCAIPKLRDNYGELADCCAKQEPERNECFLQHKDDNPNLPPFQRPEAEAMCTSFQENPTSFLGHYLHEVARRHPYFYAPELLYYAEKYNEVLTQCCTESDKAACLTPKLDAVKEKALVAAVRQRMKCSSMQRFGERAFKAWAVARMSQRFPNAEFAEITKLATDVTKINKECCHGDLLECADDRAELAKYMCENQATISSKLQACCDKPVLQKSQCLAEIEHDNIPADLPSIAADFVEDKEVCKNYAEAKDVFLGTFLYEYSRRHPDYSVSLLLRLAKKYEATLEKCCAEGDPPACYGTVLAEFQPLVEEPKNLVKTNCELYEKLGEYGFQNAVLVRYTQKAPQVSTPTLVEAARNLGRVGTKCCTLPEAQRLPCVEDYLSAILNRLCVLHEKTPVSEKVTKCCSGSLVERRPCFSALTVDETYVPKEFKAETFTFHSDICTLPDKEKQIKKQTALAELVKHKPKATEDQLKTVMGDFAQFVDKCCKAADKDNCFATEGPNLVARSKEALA
T2 sequence (P07724 25-608 limits assumed): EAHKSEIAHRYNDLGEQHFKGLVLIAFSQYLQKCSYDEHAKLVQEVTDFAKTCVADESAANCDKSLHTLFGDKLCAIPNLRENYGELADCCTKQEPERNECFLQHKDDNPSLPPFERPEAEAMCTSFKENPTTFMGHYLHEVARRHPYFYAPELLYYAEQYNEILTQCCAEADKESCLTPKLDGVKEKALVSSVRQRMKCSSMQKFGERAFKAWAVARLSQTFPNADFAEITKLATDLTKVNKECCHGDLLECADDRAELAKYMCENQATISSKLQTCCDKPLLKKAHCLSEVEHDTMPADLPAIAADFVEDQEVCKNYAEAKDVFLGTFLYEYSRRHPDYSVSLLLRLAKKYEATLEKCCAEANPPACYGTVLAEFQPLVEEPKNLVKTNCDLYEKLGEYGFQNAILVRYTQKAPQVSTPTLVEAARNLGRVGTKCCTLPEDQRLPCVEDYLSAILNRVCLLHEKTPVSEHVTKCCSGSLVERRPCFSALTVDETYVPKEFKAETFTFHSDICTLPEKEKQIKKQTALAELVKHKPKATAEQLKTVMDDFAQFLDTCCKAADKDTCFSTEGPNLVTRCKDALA

B1: E06 (VNAR)
VNAR: TRVDQTPRTATRETGESLTINCVLTDTSYPLYSTYWYRKNPGSSNKEQISISGRYVESVNKGTKSFSLRIKDLTVADSATYICRAMGTNIWTGDGAGTVLTVNA
notes: Shark (Squalus acanthias) VNAR single domain, type IV; tested as monomeric 6xHis-tagged protein; also called E06-AAA-6xHis; VNAR clone E06
[1]
  % Surface Active: 49.6%
[2]
  % Surface Active: 34.2%
[3]
  % Surface Active: 39.5%
[4]
  % Surface Active: 85.3%
[5]
  % Surface Active: 85.2%
[6]
  % Surface Active: 88.4%

B2: huE06 v1.1 (VNAR)
VNAR: TRVDQSPSSLSASVGDRVTITCVLTDTSYPLYSTYWYQQKPGSSNKEQISISGRYSESVNKGTKSFTLTISSLQPEDFATYYCRAMGTNIWTGDGAGTKVEIKH
notes: Humanized VNAR; also called humanized E06 variant 1.1
[1]
  % Surface Active: 29%
[2]
  % Surface Active: 16.3%
[3]
  % Surface Active: 17.4%
[4]
  % Surface Active: 77.8%
[5]
  % Surface Active: 78.2%
[6]
  % Surface Active: 72.9%

B3: huE06 v1.10 (VNAR)
VNAR: B2 VNAR with Q38R, Q39K, K40N
notes: Humanized VNAR; also called hE06v1.10
[1]
  % Surface Active: 39.3%
[2]
  % Surface Active: 24.5%
[3]
  % Surface Active: 27.4%
[4]
  % Surface Active: 79.8%
[5]
  % Surface Active: 78.2%
[6]
  % Surface Active: 79.3%
